Consider twelve molecules from US20130266574A1 (Regeneron, published 2013).

The target of assay [1] is T1, amino acid residues 26-148 of human ANGPTL4 fused in-line to mouse IgG2a (hANGPTL4-mFc) (human).
T1 chain: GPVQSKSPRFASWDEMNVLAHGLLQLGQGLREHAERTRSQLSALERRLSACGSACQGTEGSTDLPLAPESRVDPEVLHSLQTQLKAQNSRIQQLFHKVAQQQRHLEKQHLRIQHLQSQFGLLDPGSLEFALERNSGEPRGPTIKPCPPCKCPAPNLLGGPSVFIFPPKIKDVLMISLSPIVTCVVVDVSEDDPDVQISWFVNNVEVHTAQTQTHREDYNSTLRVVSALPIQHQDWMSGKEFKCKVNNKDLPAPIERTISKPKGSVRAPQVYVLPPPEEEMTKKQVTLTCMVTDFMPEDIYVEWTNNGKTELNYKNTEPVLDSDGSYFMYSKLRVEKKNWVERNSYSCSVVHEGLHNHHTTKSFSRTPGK
As to the kind of experiment: cell-based or functional assay.

Assay [2] concerns the target T2, full-length hANGPTL4 (amino acid residues 26-406 of SEQ ID NO:476) with a C-terminal hexa-histidine tag (human, UniProt Q9BY76 26-406).
T2 sequence: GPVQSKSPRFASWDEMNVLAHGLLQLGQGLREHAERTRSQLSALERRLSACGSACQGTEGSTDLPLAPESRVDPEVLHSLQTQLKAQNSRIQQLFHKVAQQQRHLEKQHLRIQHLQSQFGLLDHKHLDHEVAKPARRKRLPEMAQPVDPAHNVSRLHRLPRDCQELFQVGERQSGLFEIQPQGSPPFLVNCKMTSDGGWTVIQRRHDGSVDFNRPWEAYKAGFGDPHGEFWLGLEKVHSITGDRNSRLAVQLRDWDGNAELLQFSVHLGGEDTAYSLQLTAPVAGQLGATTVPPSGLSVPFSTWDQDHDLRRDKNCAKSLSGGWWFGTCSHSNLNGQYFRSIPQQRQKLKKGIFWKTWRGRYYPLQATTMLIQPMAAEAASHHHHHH
Briefly: cell-based or functional assay.

Assay [3] deals with T1, amino acid residues 26-148 of human …. As to the kind of experiment: cell-based or functional assay.
In assay [4] the target is T2, full-length hANGPTL4 (amino acid …). As to the kind of experiment: cell-based or functional assay. This is another data set of the same source.
Assay [5] concerns the target T1, amino acid residues 26-148 of human …. Briefly: SPR (Biacore), pH 7.4, 25° C., protocol of Example 3. Here is the method: (§1) Antigen-antibody binding and dissociation were monitored in real time at 25° C. and 37° C. Kinetic analysis was performed to calculate KD and half-life of antigen/antibody complex dissociation.
Furthermore, a single amino acid substitution was introduced in the framework region 1 of H1H268P (SEQ ID NO:42) to form H4H268P2 (SEQ ID NO:487) in the IgG4 version.
Background: Surface plasmon resonance follows binding to a sensor surface in real time, without labels.

Assay [6] has the same target. As to the kind of experiment: SPR (Biacore T100), hANGPTL4-mFc captured by anti-mouse IgG, antibody injected, 25° C. As to the method: as §1
The target is the same in assay [7]. Briefly: SPR (Biacore T100), hANGPTL4-mFc captured by anti-mouse IgG, antibody injected, 37° C. Here is the method: as §1

A word on the Kd: it is a measure of binding affinity in units of concentration. Low readings indicate a tighter complex, high ones a looser complex.

B1: H1H236N2 (antibody, V domains shown)
VH: EVQLVESGGGLVQPGRSLRLSCAASGFTFDDYAMHWVRQAPGKGLEWVSGISWNSGSIVYADSVKGRFTISRDNAKNSLYLQMNSLISEDTALYYCAKDESSSSGNWFDPWGQGTLVTVSS
VL: EVVMTQSPATLSVSPGERATLSCRASQSVSSNLAWYQQKPGQAPRLLIYGASTRATGIPARFSGSGSGTEFTLTISSLQSEDFAVYYCQEYNNWITFGQGTRLEIK
B1: the “% Inhibition of hANGPTL4 Activity (LPL lipase test), hANGPTL4-mFc (2 nM)” value (from here on “% Inhibition of hANGPTL4 Activity … (2 nM)”) in assay [1] came to 13%. Also, the “% Inhibition of hANGPTL4 Activity (LPL lipase test), hANGPTL4-His (10 nM)” value (from here on “% Inhibition of hANGPTL4 Activity … (10 nM)”) in assay [2] came to 19%.

B2: H4H268P2 (antibody, human IgG4 S228P, V domains shown)
VH: QVQLQQSGAGLLKPSETLSLTCTVYGGSFSIHHWTWIRHPPGKGLEWIGEINHRGSTNYNPSLKSRVTISIDTSKNQFSLKLSAVTAADTAVYYCARGLRFLDWLSSYFDYWGQGTLVTVSS
VL: DIQMTQSPSSLSASVGDRVTITCRASQGISDYLAWYQQKPGKVPNLLIYAASALQSGVPSRFSGSGSGTDFTLTISSLQPEDVATYYCQNYNTAPLTFGGGTKVEIK
notes: IgG4 version of H1H268P
B2: the “IC50 (nM) in the LPL inhibition assay, constant ANGPTL4 2 nM” value in assay [3] amounted to 1.85 nM. The “IC50 (nM) in the LPL inhibition assay, constant ANGPTL4 10 nM” value in assay [4] came to 1.61 nM. In assay [5], this molecule gave a Kd of 0.146 nM and a t1/2 of 3.25 h.

B3: H1H653P (antibody, V domains shown)
VH: QVQLVESGGGVVQPGRSLRLSCVASGFTFSSYGMHWVRQAPGKGLEWMAVIWYDGSNKYFADSVKDRFTISRDNSKNTLYLQMNTLRPDDTAVYYCVKADAPLLIYGVDVWGQGTTVTVS
VL: DIQMTQSPSSLSASVGDRVTITCRASQGIRNDLGWYQEKPGKAPKRLIYFASSLQSGVPSRFSGSGSGTEFTLTISSLQPEDFATYYCLQHNSYPYTFGQGTKLEIK
notes: Fully human antibody, H1H prefix (human IgG1)
Take B3: the “% Inhibition of hANGPTL4 Activity … (2 nM)” value in assay [1] turned out to be 55%. The “% Inhibition of hANGPTL4 Activity … (10 nM)” value in assay [2] was 48%. Further, in assay [6], the Kd was found to be 0.411 nM and the t1/2 stood at 0.717 h. In assay [7], this molecule displayed a Kd of 2.13 nM and a t1/2 of 0.1 h.

B4: H1H292P (antibody, V domains shown)
VH: EVQLVESGGGLVQPGGSLRLSCVASGFTFSSYDMHWVRQLPGKGLEWVSAIGVAGDTYYPASVKGRFTISRENAKNSLYLQMNSLRAGDTAVYYCARGDSGNYYDGDYFDFWGQGTLVTVSS
VL: DIQMTQSPSTLSASVGDRVTITCRASQSINRWLAWYQQKPGKAPKVLIYKASNLESGVPSRFSGSGSGTEFTLTISSLQPDDFATYYCQQYDSYFRTFGQGTKVEIK
notes: as for B3
Consider B4, for which, in assay [1], the “% Inhibition of hANGPTL4 Activity … (2 nM)” value worked out at 20%. Moreover, the “% Inhibition of hANGPTL4 Activity … (10 nM)” value in assay [2] came to 53%. In assay [6], this molecule returned a dissociation constant (Kd) of 0.136 nM and a t1/2 of 1.87 h. Further, in assay [7], binding was characterised by a dissociation constant (Kd) of 0.167 nM and the t1/2 is 1.47 h.

B5: H1H283P (antibody, V domains shown)
VH: EVQLVESGGGLVQPGGSLRLSCAASGFTFSSYDMHWVRQVAGKGLEWVSAIGTAGDTYYPVSVKGRFTISRENAKNSLYLHMNSLRAGDTAVYFCARGDSRNYYVGDYFDYWGQGTLVTVSS
VL: DIQMTQSPSTLSASVGDRVTITCRASQSISRWLAWYQQKPGKAPKVLIYKASNLESGVPSRFSGSGSGTEFTLTISSLQPDDFATYYCQQYNSYSRTFGQGTKVEIK
notes: as for B3
In assay [6], B5 showed a Kd of 0.13 nM and a t1/2 of 1.98 h. In assay [7], the Kd is 1.36 nM and the t1/2 was determined as 0.2 h.

B6: H1H285P (antibody, V domains shown)
VH: EVQLVESGGGLVQPGGSLRLSCAASGFTFSRYDMHWVRQVTGKGLEWVSGIGTAGDTYYPGSVKGRFTISRENDKNSLYLQMNSLRVGDTAVYYCARGDSKNYYVGDYFDYWGQGTLVTVSS
VL: DIQMTQSPSTLSASVGDRVTFTCRASHSIGNWLAWYQQKPGKAPKVLIYEASSLEDGVPSRFSGSGSGTEFTLTISSLQPDDFATYYCQQYDTYFRTFGQGTKVEIK
notes: as for B3
On to B6, for which the “% Inhibition of hANGPTL4 Activity … (2 nM)” value in assay [1] was 28%. Also, in assay [2], the “% Inhibition of hANGPTL4 Activity … (10 nM)” value amounted to 47%. In assay [6], the Kd came out at 0.0925 nM and the t1/2 came to 2.6 h. In addition, in assay [7], the affinity, expressed as Kd, was 0.194 nM and the t1/2 is 1.18 h.

B7: H1H291P (antibody, V domains shown)
VH: EVQLVESGGGLVQPGGSLRLSCAASGFTFSTYDMHWVRQGLGKGLEWVSAIGSAGDTYYPGSVKGRFTISRDNAKSSLFLHMNSLRAGDTALYYCARGDSRNYFVGDYFDYWGQGTLVTVSS
VL: DIQMTQSPSTLSASIGDRVTITCRASQSISSWLAWYQQKPGKAPKVLIYKASSLEAGVPSRFSGSGSGTEFTLTISSLQPDDFASYYCQQYSSYSRTFGQGTKVEIK
notes: as for B3
Regarding B7, in assay [6], the Kd was 0.0876 nM and the t1/2 was found to be 5.05 h. For the same molecule, in assay [7], the Kd worked out at 0.178 nM and the t1/2 turned out to be 2.03 h.

B8: H1H638P (antibody, V domains shown)
VH: EVQLVESGGGLVQPGGSLRLSCVASGFTFSSYDMHWVRQVAGKGLEWVAAIGTAGDTYYPVSVKGRFTISRENAKNSLSLHMNSLRAGDTAVYYCARGDSRNYYVGDYFDYWGQGTLVTVSS
VL: DIQMTQSPSTLSASVGDRVTITCRASQSISRWLAWYQQKPGKAPKVLIYKASSLKSGVPSRFSGSGSGTEFTLTISSLQSDDFATYYCQQYNSYSRTFGQGTKVEIK
notes: as for B3
With B8, the Kd in assay [6] amounted to 0.193 nM; in assay [7], 0.299 nM. In addition, the figures for the t1/2 in assay [6] and in assay [7] were 1.42 h and 0.8 h, respectively.

B9: H1H295P (antibody, V domains shown)
VH: EVQLVESGGGLVQPGGSLRLSCAASGFTFSTYDMHWVRQAPGKGLEWVSAIGSAGDTYYPGSVKGRFTISRDNAKSSLFLQMNSLRAGDTALYYCARGDSRNYFVGDYFDYWGQGTLVTVSS
VL: DIQMTQSPSTLSASVGDRVTITCRASQSIGTWLAWYQQKPGKAPKILIYKASSLEGGVPSRFSGSGSGTEFTLTISSLQPDDFANYYCQQYNSFYRTFGQGTKVEIK
notes: as for B3
In assay [6], B9 showed a Kd of 0.0307 nM and a t1/2 of 14.6 h. Besides, in assay [7], the affinity, expressed as Kd, was 2.62 nM and the t1/2 turned out to be 0.167 h.

B10: H1H257P (antibody, V domains shown)
VH: EVQLVESGGGLVQPGGSLRLSCAASGFTFSSYDMHWVRQVAGKGLEWVSAIGTAGDTYYPVSVKGRFTISRENAKNSLYLHMNSLRAGDTAVYFCARGDSRNYYVGDYFDYWGQGTLVTVSS
VL: DIQMTQSPSTLSASVGDRVTITCRASQSISRWLAWYQQKPGKAPKVLIYQASNLESGVPSRFSGSGSGTEFTLTISSLQPDDFATYYCQQYDSYSRAFGRGTKVEIK
notes: Fully human antibody; the H1H prefix stands for human IgG1 (said outright only for H1H268P and H1H284P)
B10: in assay [1], the “% Inhibition of hANGPTL4 Activity … (2 nM)” value was 16%. The Kd in assay [6] was 0.201 nM; in assay [7], 0.238 nM. Further, the t1/2 stood at 1.52 h in assay [6] and 1.05 h in assay [7].

B11: H1H644P (antibody, V domains shown)
VH: EVQLVESGGGLVQPGGSLRLSCAASGFTFSSYDMHWVRQVAGKGLEWVSAIGTAGDTYYPVSVKGRFTISRENAKNSLYLHMNSLRAGDTAVYYCARGDSRNYYVGDYFDYWGQGTLVTVSS
VL: DIQMTQSPSTLSASVGDRVTITCRASQSISRWLAWYQQKPGKAPKVLIYKASNLESGVPSRFSGSGSGTEFTLTISSLQPDDFATYYCQQYNTYSRTFGQGTKVEIK
notes: as for B3
In assay [6], B11 gave a Kd of 0.111 nM and a t1/2 of 2.4 h. In assay [7], this molecule returned a Kd of 3 nM and a t1/2 of 0.1 h.

B12: H1H624P (antibody, V domains shown)
VH: EVQLVESGGGLVQPGGSLRLSCAASEFIFSSYAMNWVRQAPGKGLEWVSVISGSGDSKYYADSVKGRFTISRDNSKNTLYLQMNSLRVEDTAVYYCAKDGKDRYGFYYNFYGMDVWGQGTTVTVS
VL: DIQMTQSPSFLSASVGDRVTITCWASQGISSYLAWYQQKPGKAPKILIYAASTLQSGVPSRFSASGSGTEFTLTISSLQPEDFATYHCQQLNSYPFTFGPGTKVDIK
notes: as for B3
B12: in assay [1], the “% Inhibition of hANGPTL4 Activity … (2 nM)” value turned out to be 62%. Besides, the “% Inhibition of hANGPTL4 Activity … (10 nM)” value in assay [2] is 48%. Also, the figures for the Kd in assay [6] and in assay [7] were 1.19 nM and 3.71 nM, respectively. For the same molecule, the results for the t1/2 in assay [6] and in assay [7] were 0.117 h and 0.05 h, respectively.
